Columns and labels:
[1] = target: BST2 as expressed endogenously on the surface of human cell lines (B-LCL, MM1, U266, MCF-10A, MCF7, MDA-MB-231, T47D) (human) (UniProt Q10589); assay: flow cytometry on MM1 cells, mAb 1 ug/ml
[2] = target: BST2 as expressed endogenously on the surface of human cell lines (B-LCL, MM1, U266, MCF-10A, MCF7, MDA-MB-231, T47D) (human) (UniProt Q10589); assay: flow cytometry on T47D cells, mAb 1 ug/ml
[3] = target: BST2 as expressed endogenously on the surface of human cell lines (B-LCL, MM1, U266, MCF-10A, MCF7, MDA-MB-231, T47D) (human) (UniProt Q10589); assay: flow cytometry on MDA-MB-231 cells, mAb 1 ug/ml
[4] = target: T1, Spartan protein (SprT-like domain-containing protein) (human, UniProt Q9H040 1-489, limits assumed); assay: flow cytometry of MM1 cells after preincubation of the mAb with Spartan protein
T1 construct: Irrelevant protein control in the preincubation assay; also called Spartan irrelevant protein; irrelevant protein
T1 sequence (looked up): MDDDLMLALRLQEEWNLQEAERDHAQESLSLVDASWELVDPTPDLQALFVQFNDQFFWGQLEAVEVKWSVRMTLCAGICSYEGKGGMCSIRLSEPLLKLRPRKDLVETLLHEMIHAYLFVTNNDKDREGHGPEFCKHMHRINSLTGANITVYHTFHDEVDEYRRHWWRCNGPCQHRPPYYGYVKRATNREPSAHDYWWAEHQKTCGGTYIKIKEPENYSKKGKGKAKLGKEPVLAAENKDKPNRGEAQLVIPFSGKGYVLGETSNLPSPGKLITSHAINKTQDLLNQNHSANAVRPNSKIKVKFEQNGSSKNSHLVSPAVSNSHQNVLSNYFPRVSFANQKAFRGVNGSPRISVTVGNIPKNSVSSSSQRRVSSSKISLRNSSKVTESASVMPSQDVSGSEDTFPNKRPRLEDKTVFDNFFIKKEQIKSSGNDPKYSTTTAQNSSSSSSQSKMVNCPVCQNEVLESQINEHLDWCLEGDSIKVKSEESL
Method: A specificity assay was performed and analyzed through flow cytometry staining of MM1, a multiple myeloma cell line. In this assay, changes in the binding of the LA5 mAb to the BST2 receptor expressed on MM1 cell lines were assessed after:
As part of the characterization of the selected antibody candidate, the inventors analyzed the specificity of the new antibody by flow cytometry staining of a cell line, constitutively expressing BST2, competing the antibody binding to the cells with a recombinant BST2 protein and an irrelevant target. Staining of MM1, a multiple myeloma cell line, was assessed at different conditions to test the binding specificity of the generated monoclonal antibodies. Anti-BST2-long (clone LA5) was pre-incubated with BST2 protein for 10 minutes, before being transferred to U-bottom wells plate containing MM1 cells. […] Alternatively, Spartan protein, or SprT-like domain-containing protein, a human DNA-binding metalloprotease with 489 amino acid length and involved in the response to DNA replication errors (34, 35) was used as an irrelevant protein.

[5] = target: BST2 as expressed endogenously on the surface of human cell lines (B-LCL, MM1, U266, MCF-10A, MCF7, MDA-MB-231, T47D) (human) (UniProt Q10589); assay: flow cytometry on MM1 cells, mAb not preincubated
[6] = target: BST2 as expressed endogenously on the surface of human cell lines (B-LCL, MM1, U266, MCF-10A, MCF7, MDA-MB-231, T47D) (human) (UniProt Q10589); assay: flow cytometry on B-LCL cells, mAb 1 ug/ml
[7] = target: T2, Recombinant human BST2 protein (Catalog number 13370-H07H, Sino Biological) (human, UniProt Q10589 49-161); assay: BLI (Octet RED384), mAb 5 ug/ml captured on anti-mouse IgG Fc (AMC) biosensors, BST2 protein 15.625-1000 nM, 1:1 model, global fit
T2 construct: Bought soluble protein; also called full length recombinant BST2 protein; full-length BST2 protein
T2 sequence (looked up): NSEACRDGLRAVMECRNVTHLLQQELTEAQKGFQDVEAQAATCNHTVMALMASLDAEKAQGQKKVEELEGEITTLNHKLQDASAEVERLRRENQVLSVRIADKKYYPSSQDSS
Method: Binding kinetics of the anti-BST2-long mAb clone LA5 was assessed, using Octet RED384 platform system. Briefly, antibodies were captured, as described under methods, by specific biosensors that bind the Fc region of the antibody. Based on prior experiments and certain standard operations procedures, 5 ug/ml was selected as the fixed concentration for the mAb. Various concentrations of the full length recombinant BST2 protein were used to assess the antibody affinity. The interaction was analyzed with a 1:1 binding model, involving both the association and the dissociation steps.

[8] = target: BST2 as expressed endogenously on the surface of human cell lines (B-LCL, MM1, U266, MCF-10A, MCF7, MDA-MB-231, T47D) (human) (UniProt Q10589); assay: flow cytometry on MCF-10A cells, mAb 1 ug/ml
[9] = target: T3, BST2 long isoform (BST2-D, full length BST2, 180 amino acids) expressed on HEK293 transfectants (human, UniProt Q10589 1-161); assay: flow cytometry, hybridoma supernatant on HEK293-long cells
T3 construct: also called HEK293-long; HEK293 WT-BST2
Method: For flow cytometry assays, cells were detached using 0.05% trypsin-EDTA, counted, washed and resuspend with FACS Buffer (PBS, 2% FBS, 2 mM EDTA). 2×10⁵ cells in 100 ul/well were placed in U-bottom 96-well plate and centrifuged (1000 RPM/3 min/4° C.). The buffer was discarded and 100 ul of the previously collected supernatants with selected monoclonal antibodies were added to the wells and incubated on ice for 30 minutes. After incubation, the plate was washed three times with FACS buffer and 50 ul of diluted (1/250) secondary antibody (Donkey anti-mouse Allophycocyanin (APC) conjugated) were added to the wells and incubated on ice for 20 minutes protected from light. The final wash was repeated 4 times, and the samples were transferred and analyzed at the South Campus Flow Cytometry & Cell Sorting Core Laboratory at MD Anderson Cancer Center. FACS data were analyzed with FlowJo™ Software—for Windows (Version 10.6.1. Ashland, Oreg.: Becton, Dickinson and Company; 2020).

[10] = target: BST2 as expressed endogenously on the surface of human cell lines (B-LCL, MM1, U266, MCF-10A, MCF7, MDA-MB-231, T47D) (human) (UniProt Q10589); assay: flow cytometry on MM1 cells, mAb preincubated 10 min with recombinant BST2 protein (5 ug/ml) as competitor
[11] = target: BST2 as expressed endogenously on the surface of human cell lines (B-LCL, MM1, U266, MCF-10A, MCF7, MDA-MB-231, T47D) (human) (UniProt Q10589); assay: flow cytometry on MCF7 cells, mAb 1 ug/ml
[12] = target: BST2 as expressed endogenously on the surface of human cell lines (B-LCL, MM1, U266, MCF-10A, MCF7, MDA-MB-231, T47D) (human) (UniProt Q10589); assay: flow cytometry on MM1 cells, mAb preincubated 10 min with Spartan protein (5 ug/ml)
[13] = target: BST2 as expressed endogenously on the surface of human cell lines (B-LCL, MM1, U266, MCF-10A, MCF7, MDA-MB-231, T47D) (human) (UniProt Q10589); assay: flow cytometry on U266 cells, mAb 1 ug/ml

percentage of cell staining [1]: 98.6% | percentage of cell staining [2]: 2.6% | percentage of cell staining [3]: 1% | binding result [4]: no binding (tested: 5 ug/ml) | staining percentage of the MM1 cells [5]: 85.2% | percentage of cell staining [6]: 99.3% | Kd [7]: 4.61 nM | koff [7]: 0.000921 s⁻¹ | kon [7]: 200000 M⁻¹ s⁻¹ | percentage of cell staining [8]: 2.4% | percentage of cells stained [9]: 58.3% | staining percentage of the MM1 cells [10]: 5.01% | percentage of cell staining [11]: 0.43% | staining percentage of the MM1 cells [12]: 83.9% | percentage of cell staining [13]: 96.1%
B1: anti-BST2-long monoclonal antibody clone LA5 (antibody, mouse IgG1, V domains shown)
VH: EVQLQQSGAELVRSGASVNLSCTASGFNIKDYYIHWVKQRPERGLEWIGWIDPENGDTEYAPEFQGKASMTADTSSNTAYLQLSSLTSEDTAVYYCKRGDWGQGTLVTVSA
VL: DVLMTQTPLSLPVSLGDQASISCRSSQSIVHSNGNTYLEWFLQKPGQSPKLLIYKVSNRFSGVPDRFSGSGSGTDFTLKISRVEAEDLGVYYCFQGSHAPFTFGSGTELEIK
notes: Mouse hybridoma antibody; Used as hybridoma supernatant in the screening assays and as Protein A purified mAb afterwards; also called LA5 mAb; MAb LA5

Reference: patent US20230235074A1 (University of Texas, published 2023)
